Consider four sequences from patent US20140155466.

Holding throughout (assay): cell_activity
Data set [1] concerns Human autoantibodies against endothelin receptor type A (ETA-AAB) (Homo sapiens). Particulars: pulmonary hypertension patient 2, -4.8 without aptamer.
For data set [2], the system named is Human autoantibodies against beta2-adrenergic receptor (beta2-receptor AAB) (Homo sapiens). Particulars: 100 nM.
In data set [3] the test system is Human autoantibodies against muscarinic M2 receptor (M2-receptor AAB) (Homo sapiens). Particulars: -3.67 without aptamer, 100 nM.
Data set [4] has as its system Human autoantibodies against alpha1-adrenergic receptor (alpha1-receptor AAB) (Homo sapiens). Particulars: pulmonary hypertension patient 2, 5.17 without aptamer; 100 nM.
Data set [5] concerns Human autoantibodies against beta1-adrenergic receptor (beta1-receptor AAB, 2nd loop) (Homo sapiens).
Data set [6] relates to Human alpha1/beta2-receptor autoantibodies (Alzheimer patient) (Homo sapiens). To be noted: Alzheimer patient 1, 8.0 without aptamer; 100 nM.
The test system of data set [7] is Human autoantibodies against PAR receptor (PAR-receptor AAB) (Homo sapiens). Particulars: Raynaud patient 1, 7.33 without aptamer; 100 nM.
Data set [8] relates to Human autoantibodies against angiotensin II AT1 receptor (AT1-receptor AAB) (Homo sapiens). To be noted: malignant hypertension, 7.83 without aptamer; kidney transplant 6.17 to 0.17; 100 nM.
The subject of data set [9] is Human autoantibodies against beta1-adrenergic receptor (beta1-receptor AAB, 1st loop) (Homo sapiens). To be noted: DCM patient 1, 6.33 without aptamer; 100 nM.

For “CGCCTAGGTTGGGTAGGGTGGTGGCG [NU172 (ARC2172)]”, the activity (delta beats/15 sec) in [1] (sign as printed) is 2; in data set [2] (glaucoma patient 1, 7.33 without aptamer, Chagas megacolon patient 6.17 to 2.0), 5.33; in data set [3] (sign as printed), 3; in data set [4] it was 2; in [5] (peripartum cardiomyopathy, 6.33 without aptamer, 100 nM, partial), 4.
In the case of “GGTTGGTGTGGTTGG [3'-dT cap thrombin-aptamer]”, the activity (delta beats/15 sec) in data set [2] (3'-dT cap, Alzheimer, 5.17 without aptamer) turned out to be 0; in [5] (3'-dT cap, DCM, 6.0 without aptamer, 100 nM) it was 0.
On to “GGTTGGTGTGGTTGG [5'-FITC-thrombin-aptamer]”, for which the activity (% neutralization) in [5] (loop not stated, 100 nM FITC-aptamer) turned out to be 50.
Consider “GGTTGGTGTGGTTGG [thrombin-aptamer ARC183]”, for which the activity (delta beats/15 sec) stood at 0 in [6]; 0.17 in data set [7]; 0.33 in [1] (100 nM); 0.33 in [2] (glaucoma patient 1, 7.33 without aptamer); 0.5 in data set [3] (Chagas cardiomyopathy); 0.33 in [4]. For the same sequence, the activity (delta beats/15 sec) in [8] was 0.67; in [9], -0.17; in data set [5] (DCM patient 1, 5.33 without aptamer, 100 nM aptamer, rat cardiomyocyte bioassay), 0.17.
